From patent US6040160A, “Method of producing L-lysine by fermentation” (Ajinomoto Co., Inc., priority 1993, dated 2000)
Numbering of substitutions follows the chain as printed.

B1: Wild type: wild type aspartokinase III (AKIII) of E. coli encoded by lysC on pLYSC1 (protein, UniProt P08660 2-449, looked up)
Lysine-sensitive …: SEIVVSKFGGTSVADFDAMNRSADIVLSDANVRLVVLSASAGITNLLVALAEGLEPGERFEKLDAIRNIQFAILERLRYPNVIREEIERLLENITVLAEAAALATSPALTDELVSHGELMSTLLFVEILRERDVQAQWFDVRKVMRTNDRFGRAEPDIAALAELAALQLLPRLNEGLVITQGFIGSENKGRTTTLGRGGSDYTAALLAEALHASRVDIWTDVPGIYTTDPRVVSAAKRIDEIAFAEAAEMATFGAKVLHPATLLPAVRSDIPVFVGSSKDPRAGGTLVCNKTENPPLFRALALRRNQTLLTLHSLNMLHSRGFLAEVFGILARHNISVDLITTSEVSVALTLDTTGSTSTGDTLLTQSLLMELSALCRVEVEEGLALVALIGNDLSKACGVGKEVFGVLEPFNIRMICYGASSHNLCFLVPGEDAEQVVQKLHSNLFE
B2: wild type DDPS: wild type dihydrodipicolinate synthase of E. coli (dapA product) (protein, UniProt P0A6L2 1-292, looked up)
4-hydroxy-tetrahydrodipicolina …: MFTGSIVAIVTPMDEKGNVCRASLKKLIDYHVASGTSAIVSVGTTGESATLNHDEHADVVMMTLDLADGRIPVIAGTGANATAEAISLTQRFNDSGIVGCLTVTPYYNRPSQEGLYQHFKAIAEHTDLPQILYNVPSRTGCDLLPETVGRLAKVKNIIGIKEATGNLTRVNQIKELVSDDFVLLSGDDASALDFMQLGGHGVISVTANVAARDMAQMCKLAAEGHFAEARVINQRLMPLHNKLFVEPNPIPVKWACKELGLVATDTLRLPMTPITDSGRETVRAALKHAGLL
B3: pdapAS24 (protein)
chain: B2 4-hydroxy-tetrahydrodipicolina … with H118Y, A207T, G224E

Key:
Assay type in all cases: biochemical, E. coli
AKIII = AKIII enzyme activity and inhibition by L-lysine, cell-free extract of GT3 transformants
Source text: No. 24, No. 43, No. 48, No. 60, No. 80, No. 117, No. 126, No. 149, No. 150, No. 156, No. 158, No. 167, No. 169 and No. 172 were selected as representative strains of the aforementioned 14 groups. Mutant plasmids derived from pLYSC1 were recovered from each of them, and designated as pLYSC1*24, pLYSC1*43, pLYSC1*48, pLYSC1*60, pLYSC1*80, pLYSC1*117, pLYSC1*126, pLYSC1*149, pLYSC1*150, pLYSC1*156, pLYSC1*158, pLYSC1*167, pLYSC1*169 and pLYSC1*172, respectively. An AK completely deficient strain GT3 was transformed with them and the wild type pLYSC1. A cell-free extract was prepared from each of transformed strains, and the enzyme activity of AKIII was measured.
The cell-free extract (crude enzyme solution) was prepared as follows. A transformed strain was cultivated in a 2×TY medium, and collected at an OD660 of about 0.8. Cells were washed with 0.02 M KH2 PO4 (pH 6.75)-0.03 M β-mercaptoethanol under a condition of 0° C., and the cells were ruptured by sonication (0° C., 100 W, 30 minutes×4). A ruptured cell solution was centrifuged at 33 krpm for 1 hour under a condition of 0° C. to obtain a supernatant,to which ammonium sulfate was added to give 80% saturation. After centrifugation, a pellet was dissolved in 0.02 M KH2 PO4 (pH 6.75)-0.03 M β-mercaptoethanol, and stored at 0° C. overnight.
The enzyme activity of AKIII was measured in accordance with a method of Stadtman et al. (Stadtman, E. R., Cohen, G. N., LeBras, G., and Robichon-Szulmajster, H., J. Biol. Chem., 236, 2033 (1961)). Namely, a reaction solution having the following composition was incubated at 27° C. for 45 minutes, and an FeCl3 solution (2.8 N HCl 0.4 ml +12% TCA 0.4 ml +5% FeCl3. 6H2 O/0.1 N HCl 0.7 ml) was added to develop a color, which was centrifuged followed by measurement of absorbance of a supernatant at 540 nm. The activity was indicated by an amount of hydroxamic acid generated per minute (1 U=1 μmol/min). The molar absorption coefficient was 600. Potassium aspartate was removed from the reaction solution to be used as a blank.
Various concentrations of L-lysine were added to the enzyme reaction solution for measurement of the enzyme activity of AK, and the degree of inhibition by L-lysine was examined.
On the contrary, the mutant AKIII's obtained this time had various degrees of desensitization, however, inhibition by L-lysine was desensitized in all of 14 species. […] The specific activity per total protein, which might be affected by growth situations of cell and preparation of samples, was equal to or more than that of the wild type in almost all cases, in which there was little problem of decrease in activity due to the introduction of mutation (Table 3). […]

DDPS = DDPS enzyme activity and inhibition by L-lysine, cell-free extract of JE7627 transformants
Experimental: Mutant pdapA2's were recovered from the 36 strains described above. A dapA-deficient strain, JE7627 was transformed with them and the wild type pdapA2, respectively. A cell-free extract was prepared from each of the transformed strains, and the enzyme activity of DDPS was measured.
(§1) The cell-free extract (crude enzyme solution) was prepared as follows. A transformed strain was cultivated in a 2×TY medium (1.6% Bacto trypton, 1% Yeast extract, 0.5% NaCl), and collected at an optical density at 660 nm (OD660) of about 0.8. A cell pellet was washed with 0.85% NaCl under a condition of 0° C., and suspended in 20 mM potassium phosphate buffer (pH 7.5) containing 400 mM KCl. The cells were ruptured by sonication (0° C., 200 W, 10 minutes). A ruptured cell solution was centrifuged at 33 krpm for 1 hour under a condition of 0° C. to obtain a supernatant to which ammonium sulfate was added to give 80% saturation to be stored at 0° C. overnight followed by centrifugation. A pellet was dissolved in 20 mM potassium phosphate buffer (pH 7.5)-400 mM KCl.
(§2) The enzyme activity of DDPS was measured in accordance with a method of Yugari et al. (Yugari, Y. and Gilvarg, C., J. Biol. Chem., 240, 4710 (1962)). Namely, the absorbance of a reaction solution having the following composition was measured at 37° C. with a spectrophotometer at a wavelength of 270 nm in a time-dependent manner. And generated dihydrodipicolinate was measured. Sodium pyruvate was removed from the reaction system to be used as a blank.
Various concentrations of L-lysine were added to the enzyme reaction solution during measurement of the enzyme activity of DDPS, and the degree of inhibition by L-lysine was examined.

[1] = test system: DDPS (dihydrodipicolinate synthase); assay: DDPS activity of crude enzyme solutions from W3110(tyrA) strains and inhibition by L-lysine
Experimental: as §1, with “A pellet was dissolved in 20 mM potassium phosphate buffer (pH 7.5)-400 mM KCl.” left out
as §2, with “Sodium pyruvate was removed from the reaction system to be used as a blank.” left out
Crude enzyme solutions were prepared from W3110(tyrA), W3110(tyrA)/pdapA and W3110(tyrA)/pdapA* in the same manner as in Example 1, the DDPS (dihydrodipicolinate synthase) activity was measured, and the degree of inhibition of the DDPS activity by L-lysine was examined.

[2] = in the presence of 5 mM of L-lysine
[3] = various concentrations of L-lysine, FIG. 2

Molecule | Inhibition of AKIII by L-lysine (AKIII; 5 mM of L-lysine) | Specific activity (AKIII; 1 U=1 μmol/min hydroxamic acid) | Degree of desensitization of inhibition (AKIII; AK activity in the presence of 100 mM of L-lysine with respect to AK activity in the absence of L-lysine) | Inhibition of AKIII by L-lysine (AKIII; [2]) | Inhibition of DDPS by L-lysine (DDPS; [2]) | Inhibition of DDPS by L-lysine (DDPS; [3]) | Specific activity of DDPS as compared with the wild type (DDPS) | Specific activity relative to the wild type enzyme (DDPS) [1]
B1 | about 100% | 0.0247 U/mg protein | 0% | about 100% |  |  |  | 
B2 |  |  |  |  | ~80% | suffered inhibition by L-lysine |  | 
B3 |  |  |  |  |  | desensitized | lowered a little | about 1/2
